# Experimental data: patent US20020155542A1, “Inhibitors for suppressing the activity of proteins displaying CIITA activity, methods for their identification and pharmaceutical compositions” (priority 1994, published 2002)
# Assays:
# [1] = test system: human T cell clones T-50 and T-87; test: Peptide-specific T cell activation with melanoma cells as antigen-presenting cells, H3-thymidine incorporation; type: cell-based; conditions: melanoma cells as APC, tetanus toxoid peptide p4; CIITA transfected vs 48 hours interferon gamma
# Protocol: FIG. 9. Activation of human T cell clones with transfectants and interferon-stimulated cells used as APC's. Three types of cells were tested as APC'S: Untransfected melanoma cell line, MHC class II negative (o); The same cell line following 48 hours of exposure to […] of interferon gamma, MHC class II positive (black square ); The same cell line previously transfected with CIITA cDNA, MHC class it positive (black triangle). These cells were treated with various concentrations of p4, a tetanus toxoid peptide, at the concentrations indicated, fixed by UV light and incubated with two different human T cell clones specific for that peptide, T-50 and T-87. The extent of T cell activation was measured by incorporation of […] in a standard assay, and expressed as “stimulation index”.
# Cells where the expression of MHC class II molecules had been induced by the transactivator gene CIITA (as CIITA cDNA) were tested for their ability to bind exogenously provided peptides and to present such peptides to T cell clones. These CIITA transfectants were compared with the same cells where MHC class II expression had been induced by interferon gamma. […] Peptide-specific T cell activation by these two types of MHC class II positive cells was measured by H3-thymidine incorporation, expressed as a stimulation index. […]
# [2] = test system: MHC class II positive cells; test: Peptide binding ability of MHC class II positive melanoma cells; type: cell-based, human; conditions: CIITA transfectants vs interferon activated
# Protocol: Cells where the expression of MHC class II molecules had been induced by the transactivator gene CIITA (as CIITA cDNA) were tested for their ability to bind exogenously provided peptides and to present such peptides to T cell clones. These CIITA transfectants were compared with the same cells where MHC class II expression had been induced by interferon gamma. The two types of cells expressed MHC class II molecules at the surface at a similar level. […] Peptide-specific T cell activation by these two types of MHC class II positive cells was measured by H3-thymidine incorporation, expressed as a stimulation index. In this particular experiment, melanoma cells were used as antigen-presenting cells.
# In agreement with these functional results, the peptide binding ability of these two types of MHC class II positive cells was drastically different, being low in the interferon activated cells and high in the CIITA transfectants. Thus, CIITA induces the expression of MHC class II molecules that are unusual in their highly efficient capacity to bind and to present peptides to T lymphocytes, leading to activation of these lymphocytes.
molecule,measurement,setting,value
"interferon gamma (protein, UniProt P01579 24-161, looked up, lymphokine used to induce MHC class II expression in melanoma cells, comparator to CIITA transfection) Interferon gamma: QDPYVKEAENLKKYFNAGHSDVADNGTLFLGILKNWKEESDRKIMQSQIVSFYFKLFKNFKDDQSIQKSVETIKEDMNVKFFNSNKKKRDDFEKLTNYSVTDLNVQRKAIHELIQVMAELSPAAKTGKRKRSQMLFRG",peptide-specific T cell activation (stimulation index),[1],failed to induce significant T cell activation
same,peptide binding ability,[2],low
